Experimental findings from the nanobody polyreactivity screen of Harvey et al. (2022) are described below.

This series can be described thus: yeast display, Sf9 membrane polyspecificity reagent, FACS + sequencing; frameworks hold sequencing errors. In short, it runs like this:
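A synthetic nanobody library was expressed on Saccharomyces cerevisiae BJ5465 by galactose induction for 36–48 hours. The library was stained for 1 hour at 4 °C with 10% biotinylated, detergent-solubilized Sf9 membrane reagent and enriched with streptavidin microbeads before FACS. Low and high (top ~1%) gates were set on anti-HA fluorescence for expression and streptavidin fluorescence for reagent binding, and each polyreactivity label reflects the gate of origin.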
With “QVQLVESGGGLVQAGGSLRLSCAASGSTFYYNSMGWYRQAHGKERQLVAAISKSSTRTYYADSVKGRFTISRDNAQNTVYLQMNSLKPEDTAVYYCAARQWRRSRFDYWGQGTQVNVSS”, the “polyreactivity (PSR sort gate)” value is recorded as “high polyreactivity”.

Regarding “QVQLVESGGGLVQAGGSLRLSCAASGSTFYYYAMGWYRQAPGKEREFVAAISWRGGSTYYADSVKGRFTISRDNAKNTVYLQMNSLKPEDTAVYYCAATTLYRGVYYRIFGWGYERGHWGQGTQVTVSS”, the “polyreactivity (PSR sort gate)” value is recorded as “low polyreactivity”.

With “QVQLVESGGGLVQAGGSLRLSCAASGSTFYYYAMGWYRQAPGKERELVAAIDWSGESTYYADSVKGRFTISRDNAKNTVYLQMNSLKPEDTAVYYCAADLGYPWGYVLFYKQSFSYYYWGQGTQVTVSS”, the “polyreactivity (PSR sort gate)” value was “low polyreactivity”.

On to “QVQLVESGGGLVQAGGSLRLSCAASGSTFYYYAMGWYRQAPGKERELVAAISVSGASKYYADSVKGRFTISRDNAKNTVYLQMNSLKPEDTAVYYCAADEGYPGDGDYWGQGTQVTVSS”, for which the “polyreactivity (PSR sort gate)” value was “low polyreactivity”.

With “QVQLVESGGGLVQAGGSLRLSCAASGSTFYYYAMGWYRQAPGKERELVAAITYRGGSTYYADSVKGRFTISRDNAKNTVYLQMNSLKPEDTAVFYCAIVGYKTSSIRYGYWGQGTQVTVSS”, the “polyreactivity (PSR sort gate)” value was “high polyreactivity”.

As for “QVQLVESGGGLVQAGGSLRLSCAASGSTFYYYAMGWYRQAPGKERELVASISFSGGSTYYADSVKGRFTISRDNAKNTVYLEMNRLKPEDTAVYYCGYYYWGQGTQVTVSS”, the “polyreactivity (PSR sort gate)” value is “low polyreactivity”.

Consider “QVQLVESGGGLVQAGGSLRLSCAASGSTFYYYAMGWYRQAPGKERELVASISGGGSTSYADSVKGRFTISRDNAKNTVYLQMNSLKPEDNAVYYCNADPSEYDPNYVVVFSPQKYDYCGQGTQVTVSS”, for which the “polyreactivity (PSR sort gate)” value is on record as “low polyreactivity”.

For the sequence “QVQLVESGGGLVQAGGSLRLSCAASGSTFYYYAMGWYRQATGKERELVAAISGRGGSTYYADSVKGRFTISRDNAKNTVYLQMNSLKPEDTAVYYCNKRRAAGGFPYDYWGQGTQVTVSS”, the “polyreactivity (PSR sort gate)” value was “high polyreactivity”.

Turning to “QVQLVESGGGLVQAGGSLRLSCAASGSTFYYYAMGWYRQPPGKERELVASITTGGGSTYYADSVKGRFTISRDNAKNTVYLQMNSLKPEDTAVYYCAAALAYYYWWYDYWGQGTQVTVSS”, the “polyreactivity (PSR sort gate)” value is on record as “low polyreactivity”.

For “QVQLVESGGGLVQAGGSLRLSCAASGSTFYYYTMGWYRQAPGKEREFVAAITVGGGSTYYADSEKGRFTISRDNAKNTVYLQMNSLKPEDTAVYYCAKEVGRYLGTVSYEYDYWGQGTQVTVSS”, the “polyreactivity (PSR sort gate)” value was “high polyreactivity”.

As for “QVQLVESGGGLVQAGGSLRLSCAASGSTFYYYTMGWYRQAPGKEREFVADITNRGGSTYYADSVKGRFTISRDNAKNTVYLQMNSLKPEDTAVYYCAARFSPWYWAGDYDYWGQGTQVTVSS”, the “polyreactivity (PSR sort gate)” value is listed as “high polyreactivity”.

Take “QVQLVESGGGLVQAGGSLRLSCAASGSTGWYDRGWYRQAPGKERELVASISSGDSTNYADSVKGRFTISRDNAKNTVYLQMNSLKPEDTAVYYCAADFNVGFVWGDDYDYWGQGTQVTVSS”: the “polyreactivity (PSR sort gate)” value is “low polyreactivity”.

For the sequence “QVQLVESGGGLVQAGGSLRLSCAASGSTIADKAMGWYRQAPGKERELVAAITRSGVRTYYADSVKGRFTISRDNAKNTVYLQMNSLKPEDTAVYYCAKRTYPSRIYDYWGQGTQVTVSS”, the “polyreactivity (PSR sort gate)” value was “low polyreactivity”.

Consider “QVQLVESGGGLVQAGGSLRLSCAASGSTIAFYDMGWYRQAPGKEREMVAAISQSDGDTYYADSVKGRFTISRDNAKNTVYLQMNSLKPEDTAVYYCARPSFTSGYQSYDYWGQGTQVTVSS”, for which the “polyreactivity (PSR sort gate)” value was “low polyreactivity”.

In the case of “QVQLVESGGGLVQAGGSLRLSCAASGSTIATYTMGWYRQAPGKERELVAAISVSGSRTYYADSVKGRFTISRDNAKNTVYLQMNSLIPEDTAVYYCNADPPVKLYLYDYWGQGTQVTVSS”, the “polyreactivity (PSR sort gate)” value is on record as “high polyreactivity”.

Consider “QVQLVESGGGLVQAGGSLRLSCAASGSTIDGYAMAWYRQAPGKERELVAAISRRGGSTYYADSVKGRFTISRDNATNTVYLLMNSLTPEDTAVYYCNRYPPRRYYARYYSWGQGTQVTVSS”, for which the “polyreactivity (PSR sort gate)” value was “high polyreactivity”.

On to “QVQLVESGGGLVQAGGSLRLSCAASGSTIDTYAMGWYRLAPGKERELVAGISWSGGSTFYADSVKGRFTFSRDNAKNTVDLHMNSLKPEDTAVYYCAKQLWVGVKYDYWGQGTQVTVSS”, for which the “polyreactivity (PSR sort gate)” value is given as “low polyreactivity”.

Consider “QVQLVESGGGLVQAGGSLRLSCAASGSTIEFNAMGWYRQAPGKERELVAAISGSGASTYYADSVKGRFTISRDNAKNTVYVQMNSLKPEDTAVYYCNADSLYYDYQTVDVQALDYWGQGTQVTVSS”, for which the “polyreactivity (PSR sort gate)” value is given as “low polyreactivity”.

Take “QVQLVESGGGLVQAGGSLRLSCAASGSTIFENVMGWYREAPRKEREFVAAINTSGRSTYYADSVKGRFTISRDNAKNTVFLQMNSLKPEDTAVDYCARDSYWEMDYWGQGTQVTVSS”: the “polyreactivity (PSR sort gate)” value is on record as “low polyreactivity”.

Take “QVQLVESGGGLVQAGGSLRLSCAASGSTIFGYALGSYRQAPGKERELVAASSSGGSTYYADSVKGRFTISRDNAKNTVYLQMNSLKPEDTAVYYCAATRRLKRYWAQGTQVTVSS”: the “polyreactivity (PSR sort gate)” value is given as “high polyreactivity”.

Take “QVQLVESGGGLVQAGGSLRLSCAASGSTIIRNTMGWYRKAPGKERELVAAITRSGGSTFYADSVKGRFTISRDNAKNTVYLQMNSLKPEDTAVYYCAAVRSKLYYYWGQGTQVTVSS”: the “polyreactivity (PSR sort gate)” value is recorded as “high polyreactivity”.

Take “QVQLVESGGGLVQAGGSLRLSCAASGSTIKTYATMGWYRQAPGKERELVAAITACTSTNYADSVKGRFTISRDNAKNTVYLQMNSLKPEDTAVYYGAADDYYNWYLGEPGDYWGQGTQVTVSS”: the “polyreactivity (PSR sort gate)” value is recorded as “low polyreactivity”.

As to “QVQLVESGGGLVQAGGSLRLSCAASGSTILSNAMGWYRQAPGKERELVADITSGGSTYYADSVKGRFTISLDNAKNTVYLQMNSLKQEDTAVYYCAVRYYLRRYDYWGQGTQVTVSS”, the “polyreactivity (PSR sort gate)” value is listed as “low polyreactivity”.

Turning to “QVQLVESGGGLVQAGGSLRLSCAASGSTILYNTMGWYRQAPGKERELVATITSRGDRTYYADSVKGRFTISRDNAKNTVYLQMNSLKPEDTAVDYCAADRTDFWPYDYWGQGTQVTVSS”, the “polyreactivity (PSR sort gate)” value is reported as “low polyreactivity”.

As for “QVQLVESGGGLVQAGGSLRLSCAASGSTINRNAMGWYRQAPGKERELVAGISYGGGSTYADSVKGRFTISRDNAKNTVYLQMNSLKPEDTAVYYCTADFRHGHRHDMNYWGQGTQVTVSS”, the “polyreactivity (PSR sort gate)” value was “low polyreactivity”.

Turning to “QVQLVESGGGLVQAGGSLRLSCAASGSTINWNAMGWYRQAPGKERELVASINRGDSTYYADSVKGRFTISRDNAKNTVYLQMNSLKPEDTAVYYCAARRYYSLRTFLYCFSKYDYWGQGTQVTVSS”, the “polyreactivity (PSR sort gate)” value is “high polyreactivity”.

On to “QVQLVESGGGLVQAGGSLRLSCAASGSTINYNAMGWYRQAPGKERELVAAIDSGVSTNYADSVKGRFTITRDNAKNTVYLQMNSLKPEDTAVYYCNADPDYFDYWGQGTQVTVSS”, for which the “polyreactivity (PSR sort gate)” value is “low polyreactivity”.

Turning to “QVQLVESGGGLVQAGGSLRLSCAASGSTIPDYTMGWYRQAPGKEREFVAAISRIGGTYYADSVKGRFSISRDNAKNTVYLQMNSLKPEDTAVYSCNADPQGLSGRYHGFDYWGQGTQVTVSS”, the “polyreactivity (PSR sort gate)” value is recorded as “low polyreactivity”.

With “QVQLVESGGGLVQAGGSLRLSCAASGSTIPLYAMGWYRQAPGKERELVAAISRRGGRTYYADSVKGRFTISRDNAKNTVYLQMNSLKPEDTAVYYCATAVGSRVDYWGQGTQVTVSS”, the “polyreactivity (PSR sort gate)” value is “high polyreactivity”.

For the sequence “QVQLVESGGGLVQAGGSLRLSCAASGSTIPPYAMGWYRQAPGKERELVAAITSGGSTYYAESVKGRFTISRDNAKNTVYLQMNSLKPEDTAVYSCAASWDPWEYDYWGQGTQVTVSS”, the “polyreactivity (PSR sort gate)” value is on record as “low polyreactivity”.

On to “QVQLVESGGGLVQAGGSLRLSCAASGSTIPRNAMGWYRPAPGKERELVAAITSGGSTNYADSVKGRFTLSRDNAKNTVYLQINSLKPEDTAVYYCAADEQVNTQYVVWGDYWGQGTQVTVSS”, for which the “polyreactivity (PSR sort gate)” value is reported as “low polyreactivity”.

In the case of “QVQLVESGGGLVQAGGSLRLSCAASGSTIPSNAMGWYRQAPGKERELVASITYSDGTTRYADSVKGRFTISRDNAKNTVYLLMNSLKPEDTAVYYCNAVYYREGMDYWGLGTQVTVSS”, the “polyreactivity (PSR sort gate)” value is on record as “low polyreactivity”.

“QVQLVESGGGLVQAGGSLRLSCAASGSTIPSYAMGWYRAAPGKERELVASITYSDGPTRYADSEKGRFTISRDNAKNTVFLQMNSLKPEDTAVYYCNAVYYREGMDYWGQGNQVTVSS”: the “polyreactivity (PSR sort gate)” value is listed as “low polyreactivity”.

Take “QVQLVESGGGLVQAGGSLRLSCAASGSTIPYYAMGWYRPAPGKERELVARIRWNGDSTYYADSVKGRFTISRDNAKNTVYLQMNSLKPEDTAVYYCARQGYTLYRTRYRYDYWGQGTQVTASS”: the “polyreactivity (PSR sort gate)” value was “high polyreactivity”.

As to “QVQLVESGGGLVQAGGSLRLSCAASGSTIRHYAMGWYRQAPGKERELVAAISYSGGSTYYADSVKGRFTISRYNAKNNVYLQMNSLKPEDTAVYYCAARSPSKMGYWGQGTQVTVSS”, the “polyreactivity (PSR sort gate)” value was “high polyreactivity”.

Take “QVQLVESGGGLVQAGGSLRLSCAASGSTIRSNAMGWYRQEPGKERELVAAISRTGGRTYYADSVKGRFTISRDNAKNTVYLQMNSLKPEDTAVYYCARPDKGLEYSENYYWGQGTQVTVSS”: the “polyreactivity (PSR sort gate)” value is given as “high polyreactivity”.

In the case of “QVQLVESGGGLVQAGGSLRLSCAASGSTISGYAMGWYRQAPGKEREFVASIRRSGGSTYYADSVKGRFTISRDNAKNTVYLQMNSLKPEDTAVYYCAKRYVVSRGDYWGQGTQVTVSS”, the “polyreactivity (PSR sort gate)” value was “high polyreactivity”.

For “QVQLVESGGGLVQAGGSLRLSCAASGSTISRNAMGWSRQAPGKERELVAAISWRGGRTYYADSVKGRFTISRDNAKNTVYLQMNSLKPEDTAVYYCAAEHKYRYDYWGQGTQVTVSS”, the “polyreactivity (PSR sort gate)” value was “low polyreactivity”.

Regarding “QVQLVESGGGLVQAGGSLRLSCAASGSTISSYAMGWYRPAPGKERELVAANTSGGSTYYADSLKGRFTISRDNAKNSVSLQMNSLKPEDTAVYYCDLGSTTMDYWGQGTQVTVSS”, the “polyreactivity (PSR sort gate)” value is “low polyreactivity”.

With “QVQLVESGGGLVQAGGSLRLSCAASGSTISYYAMGWYRQAPGKERELVAAITWNGGSTYYADSVKGRFTISRDNAKNTVYLQMNSLKPEDTAVYYCAKDSYYYDYDYWGQGTQVTVSS”, the “polyreactivity (PSR sort gate)” value is on record as “low polyreactivity”.

Take “QVQLVESGGGLVQAGGSLRLSCAASGSTIVGYAMGWYRQAPGKERELVAAISGSGTSTYYADSVKGRFTISRDNAKNTVYLQMNSLKPEDSAVYYCNADPIFVYSSYNYWGQGTQVTVSS”: the “polyreactivity (PSR sort gate)” value was “low polyreactivity”.
